From patent publication US6410317, “Recombinase-based methods for producing expression vectors and compositions for use in practicing the same” (Clontech Laboratories, Inc.) come the findings set out here.

Series [1] addresses T1, Cre recombinase (UniProt P06956 P06956:1-343). The series is described as follows: in vitro recombination pD3 x pCMVmycloxP, 50 mM Tris-HCl pH 7.5, 30 mM NaCl, 10 mM MgCl2, BSA, 37 C 15 min; chloramphenicol selection in E. coli. The conditions noted are these: chain copies: 4 per synapse (inferred); AatII and EcoRI overhangs before cloning; assayed within plasmid. The protocol: (§1) To achieve generation of the expression vector from the donor and acceptor, the following were mixed together on ice in a standard eppendorf microcentrifuge tube: 0.5 µg pCMVmycloxP (representing the Acceptor vector); 0.5 µg pD3 (representing the Donor vector); 2 µl 10×Cre reaction buffer (10×Cre reaction buffer contains: 500 mM Tris-HCl (pH 7.5) and 300 mM NaCl); 10 mM MgCl_2, 1 µl 20×BSA (20×BSA contains 2 mg/ml BSA (NEB)); 25 Units Cre recombinase (Novagen); H_2O to 20 µl total.
(§2) Once the reagents were mixed, the reaction was incubated for 15 mins at 37° C. Following the reaction, the mixture was heated to 65° C. for 10 mins to inactivate the Cre enzyme. Finally, an aliquot of the reaction mix was transformed to E. coli using standard methods (e.g., electroporation), and the transformed bacteria selected on LB plates containing 60 µg/ml Chloramphenicol.

Series [2] deals with T1, Cre recombinase. The series is described as follows: same reaction, second donor loxP site. Particulars: chain copies: 4 per synapse (inferred); EcoRI and SapI overhangs before cloning; assayed within plasmid. Here is the method:
as §1, §2

Series [3] has as its target T1, Cre recombinase. The series can be described thus: acceptor loxP site; same buffer, 37 C 15 min; loxP of this acceptor PCR-transferred to 10 acceptors, 27 of 30 clones correct with pDNR-luc. The conditions noted are these: chain copies: 4 per synapse (inferred); SfiI and BglII overhangs before cloning; assayed within plasmid.

T1 sequence (P06956 whole entry, one chain of several): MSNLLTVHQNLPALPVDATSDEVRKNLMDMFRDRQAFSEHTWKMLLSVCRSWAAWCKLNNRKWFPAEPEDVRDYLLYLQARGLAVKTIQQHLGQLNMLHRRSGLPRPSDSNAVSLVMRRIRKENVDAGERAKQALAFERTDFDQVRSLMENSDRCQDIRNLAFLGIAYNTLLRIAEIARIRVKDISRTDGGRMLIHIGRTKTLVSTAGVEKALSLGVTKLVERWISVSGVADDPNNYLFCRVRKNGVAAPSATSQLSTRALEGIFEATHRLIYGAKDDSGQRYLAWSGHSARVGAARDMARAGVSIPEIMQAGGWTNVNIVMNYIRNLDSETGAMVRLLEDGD

B1: loxP site 1 of donor pD3 (LoxP1-up/down) (dsDNA)
DNA 1: CGCGGCCGCATAACTTCGTATAGCATACATTATACGAAGTTATCAGTCGACG
DNA 2: AATTCGTCGACTGATAACTTCGTATAATGTATGCTATACGAAGTTATGCGGCCGCGACGT
Consider B1, for which the binding result with Cre recombinase [1] is “binds”.

B2: loxP site 2 of donor pD3 (LoxP2-up/down) (dsDNA)
DNA 1: AATTCGGATCCATAACTTCGTATAGCATACATTATACGAAGTTATGCGGCC
DNA 2: AGCGGCCGCATAACTTCGTATAATGTATGCTATACGAAGTTATGGATCCG
As to B2, the binding result with Cre recombinase [2] is listed as “binds”.

B3: loxP site of acceptor pCMVmycloxP (LoxPMyc-up/down) (dsDNA)
DNA 1: AGATAACTTCGTATAGCATACATTATACGAAGTTATA
DNA 2: GATCTATAACTTCGTATAATGTATGCTATACGAAGTTATCTCCA
As to B3, the binding result with Cre recombinase [3] is “binds”.
